{"source": "paper PMC12305709", "about": "“Functional investigation of the RNA helicase MOV10 with respect to its interplay with factors involved in nonsense-mediated mRNA decay” (The Journal of Biological Chemistry, 2025)", "key": {"[1]": {"biological_target": "GST-MOV10NTD-UPF1hel (human) (UniProt Q92900)", "sequence (Q92900 whole entry, looked up)": "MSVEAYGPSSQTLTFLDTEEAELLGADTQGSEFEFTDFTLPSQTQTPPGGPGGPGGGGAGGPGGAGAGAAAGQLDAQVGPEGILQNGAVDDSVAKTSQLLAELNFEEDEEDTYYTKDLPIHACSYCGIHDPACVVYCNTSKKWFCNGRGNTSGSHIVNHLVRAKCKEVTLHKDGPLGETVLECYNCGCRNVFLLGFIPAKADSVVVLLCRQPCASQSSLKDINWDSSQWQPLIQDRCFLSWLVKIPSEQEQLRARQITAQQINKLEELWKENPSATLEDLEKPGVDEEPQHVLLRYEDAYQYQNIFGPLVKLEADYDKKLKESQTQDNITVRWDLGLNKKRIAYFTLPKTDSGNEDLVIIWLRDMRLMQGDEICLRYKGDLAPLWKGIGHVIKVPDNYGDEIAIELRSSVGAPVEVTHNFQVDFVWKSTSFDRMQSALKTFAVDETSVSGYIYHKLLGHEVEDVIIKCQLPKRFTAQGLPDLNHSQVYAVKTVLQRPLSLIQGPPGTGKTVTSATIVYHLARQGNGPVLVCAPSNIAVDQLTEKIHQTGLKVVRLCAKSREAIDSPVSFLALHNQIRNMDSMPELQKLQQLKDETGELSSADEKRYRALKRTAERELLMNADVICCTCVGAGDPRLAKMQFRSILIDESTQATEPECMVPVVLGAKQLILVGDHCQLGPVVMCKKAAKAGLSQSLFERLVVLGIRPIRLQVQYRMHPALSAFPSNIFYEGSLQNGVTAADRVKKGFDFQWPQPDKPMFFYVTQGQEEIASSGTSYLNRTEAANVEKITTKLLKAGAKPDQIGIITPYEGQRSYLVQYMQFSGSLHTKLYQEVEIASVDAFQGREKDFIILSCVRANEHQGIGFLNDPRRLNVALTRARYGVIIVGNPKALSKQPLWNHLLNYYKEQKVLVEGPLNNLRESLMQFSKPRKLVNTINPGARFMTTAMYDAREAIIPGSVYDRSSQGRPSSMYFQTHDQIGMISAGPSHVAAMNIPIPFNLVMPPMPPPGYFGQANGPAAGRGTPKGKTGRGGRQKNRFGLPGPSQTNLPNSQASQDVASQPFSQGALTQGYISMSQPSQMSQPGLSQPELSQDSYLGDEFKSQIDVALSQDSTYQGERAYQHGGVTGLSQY"}, "UPF1 [2]": {"biological_target": "T1, UPF1 (Homo sapiens, UniProt Q92900-2 115-914)", "T1 sequence": "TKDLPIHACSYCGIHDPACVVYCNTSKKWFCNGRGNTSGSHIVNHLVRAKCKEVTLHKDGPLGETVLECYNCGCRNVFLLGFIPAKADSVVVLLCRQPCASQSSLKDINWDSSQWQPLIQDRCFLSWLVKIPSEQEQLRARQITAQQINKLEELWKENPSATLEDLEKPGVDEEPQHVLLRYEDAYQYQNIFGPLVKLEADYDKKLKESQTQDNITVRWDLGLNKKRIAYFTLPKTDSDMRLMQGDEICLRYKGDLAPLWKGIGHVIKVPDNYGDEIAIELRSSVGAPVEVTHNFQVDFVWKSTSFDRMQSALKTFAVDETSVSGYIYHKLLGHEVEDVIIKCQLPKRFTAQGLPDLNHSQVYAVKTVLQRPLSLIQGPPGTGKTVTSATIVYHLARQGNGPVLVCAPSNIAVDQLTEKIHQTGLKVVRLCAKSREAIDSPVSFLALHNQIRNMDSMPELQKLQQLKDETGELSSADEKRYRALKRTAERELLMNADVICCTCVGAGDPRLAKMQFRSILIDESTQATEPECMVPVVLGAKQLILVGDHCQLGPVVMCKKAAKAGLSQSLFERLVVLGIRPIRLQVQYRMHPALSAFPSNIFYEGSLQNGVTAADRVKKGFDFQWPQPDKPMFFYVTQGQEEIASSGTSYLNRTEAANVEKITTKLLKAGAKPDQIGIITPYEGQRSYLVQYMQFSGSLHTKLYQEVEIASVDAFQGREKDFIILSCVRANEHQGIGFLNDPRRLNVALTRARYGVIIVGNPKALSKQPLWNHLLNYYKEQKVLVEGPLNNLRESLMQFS"}, "Flag-MOV10hel": {"biological_target": "T2, Flag-MOV10hel (human, UniProt Q9HCE1 289-1001)", "T2 construct": "MOV10, human, helicase core, residues 289-1001; also called helicase core of MOV10; source: HEK293, transfected, immunopurified on anti-Flag M2 agarose", "T2 sequence (looked up)": "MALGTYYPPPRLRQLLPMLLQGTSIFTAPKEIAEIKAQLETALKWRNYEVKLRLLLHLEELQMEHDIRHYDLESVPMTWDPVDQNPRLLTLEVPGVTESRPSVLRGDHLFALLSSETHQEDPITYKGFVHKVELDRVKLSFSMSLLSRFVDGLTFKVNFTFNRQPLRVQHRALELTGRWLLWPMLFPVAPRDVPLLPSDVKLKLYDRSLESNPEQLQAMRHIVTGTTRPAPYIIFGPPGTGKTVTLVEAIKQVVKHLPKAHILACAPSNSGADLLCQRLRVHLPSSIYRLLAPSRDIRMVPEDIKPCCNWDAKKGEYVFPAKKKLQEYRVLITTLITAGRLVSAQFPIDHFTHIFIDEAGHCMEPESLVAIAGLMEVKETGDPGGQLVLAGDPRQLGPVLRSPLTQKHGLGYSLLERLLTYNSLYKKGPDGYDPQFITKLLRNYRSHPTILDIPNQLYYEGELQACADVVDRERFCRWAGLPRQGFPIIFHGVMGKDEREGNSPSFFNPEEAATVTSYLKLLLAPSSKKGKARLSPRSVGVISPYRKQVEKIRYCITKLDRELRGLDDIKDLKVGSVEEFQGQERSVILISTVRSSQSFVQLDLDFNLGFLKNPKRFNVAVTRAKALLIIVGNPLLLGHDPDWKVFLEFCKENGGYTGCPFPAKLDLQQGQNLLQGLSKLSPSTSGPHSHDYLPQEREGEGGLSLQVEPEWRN", "experiment": "co-IP; as a2, but cell lysates treated with RNase A (60 ug/uL, 10 min, 25 C); SDS-PAGE, Coomassie, densitometry of the UPF2 band", "details": "both partners purified"}, "UPF1 [3]": {"biological_target": "T1, UPF1", "experiment": "fluorescence anisotropy; no nucleotide; affinity comparable to P1; Kd only in figure; 20 mM Hepes pH 7.5, 100 mM NaCl, 1 mM MgCl2, 100 ug/ml BSA; 5 nM RNA; 30 min room temperature, read at 25 C", "details": "protein: recombinant; tags: 6xHis, His-Trx or His-GST fusion in E. coli; label: 5' 6-FAM; single strand"}, "[4]": {"biological_target": "T3, MOV10NTD-UPF1hel (Chimera 3) (Homo sapiens, UniProt Q9HCE1 1-264+=GSAGAAGSGA+Q92900-2:295-914, internal_change)", "T3 sequence": "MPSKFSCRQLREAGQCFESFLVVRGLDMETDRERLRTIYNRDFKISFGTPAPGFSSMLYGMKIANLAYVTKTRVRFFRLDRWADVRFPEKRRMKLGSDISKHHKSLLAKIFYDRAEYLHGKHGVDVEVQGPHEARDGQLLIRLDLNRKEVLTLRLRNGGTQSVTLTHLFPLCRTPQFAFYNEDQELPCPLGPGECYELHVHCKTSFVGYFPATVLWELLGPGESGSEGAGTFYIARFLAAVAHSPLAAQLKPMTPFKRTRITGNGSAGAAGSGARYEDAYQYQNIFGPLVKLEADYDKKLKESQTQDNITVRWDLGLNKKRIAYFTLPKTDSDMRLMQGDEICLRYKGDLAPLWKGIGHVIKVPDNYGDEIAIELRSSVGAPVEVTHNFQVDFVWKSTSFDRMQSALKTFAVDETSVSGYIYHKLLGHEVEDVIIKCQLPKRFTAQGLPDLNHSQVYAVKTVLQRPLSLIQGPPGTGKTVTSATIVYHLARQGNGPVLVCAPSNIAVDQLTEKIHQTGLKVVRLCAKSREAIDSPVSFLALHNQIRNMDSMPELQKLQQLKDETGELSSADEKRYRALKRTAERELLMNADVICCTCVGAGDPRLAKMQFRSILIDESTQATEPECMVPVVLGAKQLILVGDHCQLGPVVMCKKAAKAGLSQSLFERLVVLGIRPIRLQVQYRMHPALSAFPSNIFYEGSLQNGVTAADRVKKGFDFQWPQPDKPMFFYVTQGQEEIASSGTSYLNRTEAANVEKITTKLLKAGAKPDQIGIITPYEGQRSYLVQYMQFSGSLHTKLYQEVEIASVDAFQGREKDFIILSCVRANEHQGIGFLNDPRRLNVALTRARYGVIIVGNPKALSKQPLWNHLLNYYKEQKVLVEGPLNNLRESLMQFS", "experiment": "fluorescence anisotropy; no nucleotide; 1 mM Mg2+; 20 mM Hepes pH 7.5, 100 mM NaCl, 1 mM MgCl2, 100 ug/ml BSA; 5 nM RNA; 30 min room temperature, read at 25 C", "details": "protein: recombinant; tags: 6xHis, His-Trx or His-GST fusion in E. coli; label: 5' 6-FAM; single strand"}}}
{"molecule": "UPF2s (domain or fragment)", "values": [{"measurement": "RNA-dependent ATPase activity of MOV10NTD-UPF1hel upon addition of UPF2 (1.5-fold excess), against the chimera alone", "setting": "[1]", "result": 1.1, "unit": "fold"}, {"measurement": "nucleic acid unwinding activity of MOV10NTD-UPF1hel (300 nM) upon addition of UPF2 (600 nM), against the chimera alone", "setting": "[1]", "result": 1.25, "unit": "fold"}, {"measurement": "RNA-dependent ATPase activity of UPF1 upon addition of UPF2 (1.5-fold excess), against UPF1 alone", "setting": "UPF1 [2]", "result": 2.4, "unit": "fold"}]}
{"molecule": "UPF2 (near full-length variant, residues 121-1227) (domain or fragment, human, UniProt Q9HAU5 121-1227, looked up, UPF2, human, residues 121-1227; also called near full-length UPF2) MKEKEESIQLHQEAWERHHLRKELRSKNQNAPDSRPEENFFSRLDSSLKKNTAFVKKLKTITEQQRDSLSHDFNGLNLSKYIAEAVASIVEAKLKISDVNCAVHLCSLFHQRYADFAPSLLQVWKKHFEARKEEKTPNITKLRTDLRFIAELTIVGIFTDKEGLSLIYEQLKNIINADRESHTHVSVVISFCRHCGDDIAGLVPRKVKSAAEKFNLSFPPSEIISPEKQQPFQNLLKEYFTSLTKHLKRDHRELQNTERQNRRILHSKGELSEDRHKQYEEFAMSYQKLLANSQSLADLLDENMPDLPQDKPTPEEHGPGIDIFTPGKPGEYDLEGGIWEDEDARNFYENLIDLKAFVPAILFKDNEKSCQNKESNKDDTKEAKESKENKEVSSPDDLELELENLEINDDTLELEGGDEAEDLTKKLLDEQEQEDEEASTGSHLKLIVDAFLQQLPNCVNRDLIDKAAMDFCMNMNTKANRKKLVRALFIVPRQRLDLLPFYARLVATLHPCMSDVAEDLCSMLRGDFRFHVRKKDQINIETKNKTVRFIGELTKFKMFTKNDTLHCLKMLLSDFSHHHIEMACTLLETCGRFLFRSPESHLRTSVLLEQMMRKKQAMHLDARYVTMVENAYYYCNPPPAEKTVKKKRPPLQEYVRKLLYKDLSKVTTEKVLRQMRKLPWQDQEVKDYVICCMINIWNVKYNSIHCVANLLAGLVLYQEDVGIHVVDGVLEDIRLGMEVNQPKFNQRRISSAKFLGELYNYRMVESAVIFRTLYSFTSFGVNPDGSPSSLDPPEHLFRIRLVCTILDTCGQYFDRGSSKRKLDCFLVYFQRYVWWKKSLEVWTKDHPFPIDIDYMISDTLELLRPKIKLCNSLEESIRQVQDLEREFLIKLGLVNDKDSKDSMTEGENLEEDEEEEEGGAETEEQSGNESEVNEPEEEEGSDNDDDEGEEEEEENTDYLTDSNKENETDEENTEVMIKGGGLKHVPCVEDEDFIQALDKMMLENLQQRSGESVKVHQLDVAIPLHLKSQLRKGPPLGGGEGEAESADTMPFVMLTRKGNKQQFKILNVPMSSQLAANHWNQQQAEQEERMRMKKLTLDINERQEQED", "values": [{"measurement": "fold less UPF2 coprecipitated than with Flag-MOV10fl and Flag-MOV10NTD", "setting": "Flag-MOV10hel", "result": "~4", "unit": "fold less"}]}
{"molecule": "UUUUUUUUUUUU (ssRNA)", "note": "[U12 RNA]", "values": [{"measurement": "binding result", "setting": "UPF1 [3]", "result": "binds"}, {"measurement": "Kd", "setting": "[4]", "result": 36, "unit": "nM"}]}
